T1: MBP-IpMYB1 (Ipomoea purpurea, UniProt Q1JV13 1-272)
T1 sequence: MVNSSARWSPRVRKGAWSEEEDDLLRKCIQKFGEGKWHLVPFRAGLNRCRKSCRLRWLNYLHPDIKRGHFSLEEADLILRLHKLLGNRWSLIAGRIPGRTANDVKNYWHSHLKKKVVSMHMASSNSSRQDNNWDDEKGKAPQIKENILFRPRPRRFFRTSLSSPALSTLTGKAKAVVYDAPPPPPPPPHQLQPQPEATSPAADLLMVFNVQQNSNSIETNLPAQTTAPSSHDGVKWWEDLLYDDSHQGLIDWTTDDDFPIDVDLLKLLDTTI

B1: MYB1pro probe 3 (dsDNA)
DNA 1: TCTAGCTAGCTAGCTACCAACTGCAC
DNA 2: GTGCAGTTGGTAGCTAGCTAGCTAGA
B2: p1x3 (dsDNA)
DNA 1: ATTCCTAGCTACCATACCTAGCTACCATACCTAGCTACCATATTA
DNA 2: TAATATGGTAGCTAGGTATGGTAGCTAGGTATGGTAGCTAGGAAT

Columns and labels:
[1] = biological target: T1, MBP-IpMYB1; experiment: EMSA; favored over probe 1; EMSA: 1x = 10 mM Tris-HCl pH 7.5, 50 mM NaCl, 8 mM MgCl2, 1 mM EDTA, 1 mM DTT, 5% glycerol; 20 pmol probe, 2 ug MBP-protein in 10 ul, 25 C, 10 min; 12% native PAGE, 0.25x TBE; settings: protein: recombinant; tags: MBP (pMAL-c2G)
[2] = biological target: T1, MBP-IpMYB1; experiment: EMSA; EMSA: 1x = 10 mM Tris-HCl pH 7.5, 50 mM NaCl, 8 mM MgCl2, 1 mM EDTA, 1 mM DTT, 5% glycerol; 20 pmol probe, 2 ug MBP-protein in 10 ul, 25 C, 10 min; 12% native PAGE, 0.25x TBE; settings: protein: recombinant; tags: MBP (pMAL-c2G)

Binder	binding result [1]	binding result [2]
B1	binds	–
B2	–	binds

Reference: paper PMC3847620, “A valid strategy for precise identifications of transcription factor binding sites in combinatorial regulation using bioinformatic and experimental approaches”
